The nature of the data set: self-splicing fitness, log relative to wild type (ln ratio); higher = more splicing; Tetrahymena group I intron in knt gene, E. coli kanamycin selection, DiMSum; sequences stand for … in CUCUCU…GGAGGGAAAAGUUAUCAGGCAUGCACCUGGUAGCUAGUCUUUAAACCAAUAGAUUGCAUCGGUUUAAAAGGCAAGACCGUCAAAUUGCGGGAAAGGGGUCAACAGCCGUUCAGUACCAAGUCUCAGGGGAAACUUUGAGAUGGCCUUGCAAAGGGUAUGGUAAUAAGCUGACGGACAUGGUCCUAACCACGCAGCCAAGUCCUAAGUCAACAGAUCUUCUGUUGAUAUGGAUGCAGUUCACAGACUAAAUGUCGGUCGGGGAAGAUGUAUUCUUCUCAUAAGAUAUAGUCGGACCUCUCCUUAAUGGGAGCUAGCGGAUGAAGUGAUGCAACACUGGAGCCGCUGGGAACUAAUUUGUAUGCGAAAGUAUAUUGAUUAGUUUUGGAGUACUCGUGGUCG
The method in brief:
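DiMSum derived fitness as the error-weighted combination of fold changes across replicates, kanamycin versus no kanamycin, normalised to wild type. E. coli BL21(DE3) held the library, which randomised all eight P1ex-region intron nucleotides within the knt kanamycin-resistance gene on pET-22b(+). Six replicate transformations grew overnight at 37°C or 30°C on LB agar with or without 25 μg/mL kanamycin, also containing 100 μg/mL carbenicillin, 50 μM IPTG and 0.2% rhamnose, and pooled colonies were amplicon-sequenced on an Illumina HiSeq 2500.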

± gives the uncertainty stated by the source.

As to GUCGAGCAAUAUUACGACUC, the “self-splicing fitness (ln)” value by setting is: (30 °C) -2.05 ± 0.32; (37 °C) -1.15 ± 0.36.

As to ACACAGCAAUAUUACGAAAG, the “self-splicing fitness (ln)” value runs as follows: (30 °C) -2.32 ± 0.074; (37 °C) -2.06 ± 0.11.

On to CGUUAGCAAUAUUACGCGCA, for which the “self-splicing fitness (ln)” value was -1.01 ± 0.29 (30 °C) and -0.131 ± 0.47 (37 °C).

As to GCCUAGCAAUAUUACGGUAC, the “self-splicing fitness (ln)” value reads like this: (30 °C) -2.66 ± 0.15; (37 °C) -0.822 ± 0.13.

Turning to ACAUAGCAAUAUUACGUUUU, the “self-splicing fitness (ln)” value is -3.76 ± 0.16 (30 °C) and -2.59 ± 0.17 (37 °C).

Turning to GGCAAGCAAUAUUACGACUA, the “self-splicing fitness (ln)” value is -0.26 ± 0.13 (30 °C) and 0.336 ± 0.14 (37 °C).

In the case of AGUCAGCAAUAUUACGUGCC, the “self-splicing fitness (ln)” value reads like this: (30 °C) -1.02 ± 0.077; (37 °C) 0.0632 ± 0.095.

Turning to ACCUAGCAAUAUUACGCCGU, the “self-splicing fitness (ln)” value runs as follows: (30 °C) -0.801 ± 0.083; (37 °C) -0.776 ± 0.11.

On to AGAAAGCAAUAUUACGAGGC, for which the “self-splicing fitness (ln)” value by setting is: (30 °C) -3.15 ± 0.42; (37 °C) -2.66 ± 0.41.

On to CGAGAGCAAUAUUACGAGAC, for which the “self-splicing fitness (ln)” value (30 °C) was -2.64 ± 0.46.

For GCGGAGCAAUAUUACGCGAA, the “self-splicing fitness (ln)” value (37 °C) was -0.648 ± 0.23.

Take CUGAAGCAAUAUUACGCUUC: the “self-splicing fitness (ln)” value was -3.51 ± 0.19 (30 °C) and -2.56 ± 0.19 (37 °C).

Regarding UCUCAGCAAUAUUACGUGCG, the “self-splicing fitness (ln)” value is -3 ± 0.22 (30 °C) and -1.44 ± 0.18 (37 °C).

For the sequence UGGUAGCAAUAUUACGGGGG, the “self-splicing fitness (ln)” value by setting is: (30 °C) -3.73 ± 0.32; (37 °C) -2.45 ± 0.33.

CCUCAGCAAUAUUACGCUAU: the “self-splicing fitness (ln)” value (30 °C) is -4.26 ± 0.43 and the “self-splicing fitness (ln)” value (37 °C) is -2.22 ± 0.28.

Turning to UUGGAGCAAUAUUACGAUUA, the “self-splicing fitness (ln)” value was -0.16 ± 0.41 (30 °C) and -1.3 ± 0.39 (37 °C).

UCCUAGCAAUAUUACGCCCA: the “self-splicing fitness (ln)” value was -1.65 ± 0.34 (30 °C) and -0.0863 ± 0.31 (37 °C).

On to UUCAAGCAAUAUUACGAUCA, for which the “self-splicing fitness (ln)” value is, setting by setting: (30 °C) -0.845 ± 0.082; (37 °C) -0.189 ± 0.093.

On to UUUGAGCAAUAUUACGUGAU, for which, where the note is “30 °C”, the “self-splicing fitness (ln)” value was -2.95 ± 0.33.

Regarding AUCAAGCAAUAUUACGAGUC, the “self-splicing fitness (ln)” value reads like this: (30 °C) -3.08 ± 0.23; (37 °C) -2.19 ± 0.24.

Consider AAGCAGCAAUAUUACGGACU, for which the “self-splicing fitness (ln)” value reads like this: (30 °C) -0.985 ± 0.078; (37 °C) -0.121 ± 0.11.

In the case of CUCAAGCAAUAUUACGAAAG, the “self-splicing fitness (ln)” value was -2.12 ± 0.11 (30 °C) and -0.747 ± 0.13 (37 °C).

With GUGCAGCAAUAUUACGCAUG, the “self-splicing fitness (ln)” value runs as follows: (30 °C) -3.11 ± 0.29; (37 °C) -0.586 ± 0.16.

As for AUUCAGCAAUAUUACGAGAU, the “self-splicing fitness (ln)” value (30 °C) is -2.7 ± 0.17 and the “self-splicing fitness (ln)” value (37 °C) is -0.722 ± 0.13.

As for UAGAAGCAAUAUUACGAGCG, the “self-splicing fitness (ln)” value reads like this: (30 °C) -0.732 ± 0.096; (37 °C) -0.815 ± 0.13.

UAACAGCAAUAUUACGGGGA: the “self-splicing fitness (ln)” value (30 °C) is -2.36 ± 0.15 and the “self-splicing fitness (ln)” value (37 °C) is -2.1 ± 0.097.

With UGCUAGCAAUAUUACGUGUG, the “self-splicing fitness (ln)” value is, setting by setting: (30 °C) -1.63 ± 0.08; (37 °C) -0.822 ± 0.096.

Consider UAAAAGCAAUAUUACGCCGG, for which the “self-splicing fitness (ln)” value by setting is: (30 °C) -0.134 ± 0.11; (37 °C) 0.0922 ± 0.14.

With GAAUAGCAAUAUUACGUCCG, the “self-splicing fitness (ln)” value is -1.39 ± 0.15 (30 °C) and -1.33 ± 0.22 (37 °C).

Consider UAUGAGCAAUAUUACGUUAA, for which the “self-splicing fitness (ln)” value (30 °C) is -4.12 ± 0.31 and the “self-splicing fitness (ln)” value (37 °C) was -2.59 ± 0.28.

With AUGGAGCAAUAUUACGUCUG, the “self-splicing fitness (ln)” value (30 °C) was -2.81 ± 0.24 and the “self-splicing fitness (ln)” value (37 °C) was -2.04 ± 0.25.

Consider CGCAAGCAAUAUUACGGCCU, for which the “self-splicing fitness (ln)” value is -2.59 ± 0.14 (30 °C) and -0.135 ± 0.13 (37 °C).

For AUUAAGCAAUAUUACGAGAU, the “self-splicing fitness (ln)” value is -2.99 ± 0.21 (30 °C) and -1.47 ± 0.16 (37 °C).

Turning to GUUUAGCAAUAUUACGCCCA, the “self-splicing fitness (ln)” value reads like this: (30 °C) -1.48 ± 0.19; (37 °C) -0.953 ± 0.33.

Regarding CACGAGCAAUAUUACGACAU, the “self-splicing fitness (ln)” value is, setting by setting: (30 °C) -3.645 ± 0.024; (37 °C) -2.92 ± 0.04.

As for UCGUAGCAAUAUUACGUUGC, the “self-splicing fitness (ln)” value (30 °C) is -3.02 ± 0.47.

In the case of AAGAAGCAAUAUUACGAUUA, the “self-splicing fitness (ln)” value runs as follows: (30 °C) -0.809 ± 0.11; (37 °C) 0.095 ± 0.11.

GGUUAGCAAUAUUACGGGGG: for the setting “37 °C”, the “self-splicing fitness (ln)” value was -2.37 ± 0.44.

For the sequence GCCGAGCAAUAUUACGCUGA, the “self-splicing fitness (ln)” value was -1.88 ± 0.17 (30 °C) and -0.952 ± 0.13 (37 °C).

GUCGAGCAAUAUUACGUUCC: the “self-splicing fitness (ln)” value was -1.99 ± 0.24 (30 °C) and -0.593 ± 0.37 (37 °C).

The record behind these values is the supplement of paper PMC7877785.
